Assay results from publication PMC11341566 (Nature Communications, 2024).
Blank lines part the entries; values can stand above or below the molecule they belong to. Square brackets hold non-standard residues; d marks the D form.

Assays:
[1] = molecular target: Ac-(rada)4-NH2
[2] = molecular target: T1, trypsin (UniProt P35030 81-304)
T1 sequence (looked up): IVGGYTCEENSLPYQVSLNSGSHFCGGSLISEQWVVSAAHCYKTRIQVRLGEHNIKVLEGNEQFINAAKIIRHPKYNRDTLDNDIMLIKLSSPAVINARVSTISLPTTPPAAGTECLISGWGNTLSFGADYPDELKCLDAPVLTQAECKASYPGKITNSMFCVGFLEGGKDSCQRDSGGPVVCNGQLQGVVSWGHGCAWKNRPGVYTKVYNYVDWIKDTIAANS

[3] = molecular target: T2, lipase (UniProt P16233 17-465)
T2 sequence (looked up): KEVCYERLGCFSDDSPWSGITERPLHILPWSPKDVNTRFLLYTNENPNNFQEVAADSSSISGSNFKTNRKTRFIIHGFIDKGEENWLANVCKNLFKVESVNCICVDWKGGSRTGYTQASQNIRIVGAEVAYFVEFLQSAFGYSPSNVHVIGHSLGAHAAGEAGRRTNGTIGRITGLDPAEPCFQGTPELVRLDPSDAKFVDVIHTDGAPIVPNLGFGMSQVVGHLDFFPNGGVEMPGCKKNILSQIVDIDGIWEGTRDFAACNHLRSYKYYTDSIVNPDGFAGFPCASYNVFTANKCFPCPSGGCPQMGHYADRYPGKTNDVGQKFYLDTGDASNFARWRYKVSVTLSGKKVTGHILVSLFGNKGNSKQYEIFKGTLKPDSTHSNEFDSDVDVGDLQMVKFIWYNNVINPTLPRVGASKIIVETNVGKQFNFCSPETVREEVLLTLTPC

[4] = molecular target: CP-CNDS, fluorescein-labelled (mixture of DCP1 and DCP2, mass ratio 2:3); assay: fluorescence polarisation

Molecule: chymotrypsin (enzyme)
Kd [1]: 227 nM

B1: lipase (enzyme)
chain: T2 sequence (looked up)
Kd [4]: 251 nM

The remaining lines, values ahead:

Kd [2]: ~342 nM | Kd [3]: ~452 nM
Molecule: Ac-[dR][dA][dD][dA][dR][dA][dD][dA][dR][dA][dD][dA][dR][dA][dD][dA]-NH2 [Ac-(rada)4-NH2]

Kd [4]: 102 nM
B2: trypsin (enzyme)
chain: T1 sequence (looked up)
